Assay results: publication PMC3542428, “Functional Insights from the Crystal Structure of the N-Terminal Domain of the Prototypical Toll Receptor” (Structure(London, England:1993), 2013)

Key:
[1] = target: Toll (Drosophila melanogaster) (UniProt P08953); conditions: cited from earlier work
[2] = target: TollN6-VLR (hybrid of Toll residues 28-228 and variable lymphocyte receptor B.61 residues 133-201) (Drosophila melanogaster | hagfish) (UniProt P08953); assay: dynamic light scattering; 100 mM NaCl, 50 mM Tris-HCl pH 7.0, about 200 μg/ml; Z-average diameter 12.7 nm, polydispersion index about 0.1
[3] = target: single and double mutations of Cys 34, Cys 43 and Cys 45 in the Toll-TLR4 chimera
[4] = target: T1, full-length Toll ECD (extracellular domain of Drosophila melanogaster Toll) (Drosophila melanogaster, UniProt P08953 28-807); assay: SEC; data not shown; same preparation of C-106 with full-length Toll ECD, complexes elute as 280 kDa species; conditions: both partners purified
T1 construct: Toll, Drosophila melanogaster, UniProt P08953, full-length extracellular domain; Also used as the target of the functional row on endogenous Toll of S2 cells (no molecule of its own was made for the whole receptor); also called full-length ECD; full-length ectodomain
T1 sequence (looked up): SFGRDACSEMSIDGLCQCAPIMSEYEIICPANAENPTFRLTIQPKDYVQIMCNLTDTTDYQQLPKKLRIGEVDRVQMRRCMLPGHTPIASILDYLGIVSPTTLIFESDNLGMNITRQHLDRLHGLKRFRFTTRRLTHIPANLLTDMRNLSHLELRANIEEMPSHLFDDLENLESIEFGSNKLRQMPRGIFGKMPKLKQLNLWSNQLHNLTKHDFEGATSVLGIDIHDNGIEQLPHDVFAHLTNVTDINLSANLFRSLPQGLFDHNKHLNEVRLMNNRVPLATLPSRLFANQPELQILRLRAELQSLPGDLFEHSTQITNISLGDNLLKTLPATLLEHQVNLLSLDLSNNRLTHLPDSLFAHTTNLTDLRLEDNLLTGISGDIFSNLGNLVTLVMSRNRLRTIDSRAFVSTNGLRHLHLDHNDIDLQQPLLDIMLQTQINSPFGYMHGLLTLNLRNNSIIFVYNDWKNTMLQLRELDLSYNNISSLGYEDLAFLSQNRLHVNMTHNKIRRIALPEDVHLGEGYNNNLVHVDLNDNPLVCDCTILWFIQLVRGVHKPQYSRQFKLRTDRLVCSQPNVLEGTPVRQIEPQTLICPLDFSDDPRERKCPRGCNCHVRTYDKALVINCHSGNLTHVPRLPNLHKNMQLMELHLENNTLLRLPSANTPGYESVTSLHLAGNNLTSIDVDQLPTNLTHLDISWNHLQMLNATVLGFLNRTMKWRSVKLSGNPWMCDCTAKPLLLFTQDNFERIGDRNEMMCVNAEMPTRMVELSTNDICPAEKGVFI

[5] = target: T2, TollN13-VLR (Toll N-terminal region up to LRR13 fused to VLR B.61 residues 133-201) (Drosophila melanogaster | hagfish, UniProt P08953 28-397; Q4G1L2 133-201); assay: SEC; gel filtration of the Toll-VLR constructs alone and mixed with Spz C-106 (TollN6-VLR and C-106 in equimolar concentrations); conditions: both partners purified
T2 construct: Toll, Drosophila melanogaster, UniProt P08953, residues 28-397 (first 13 LRRs); cloned as residues 1-397 with its own signal peptide; the results say 'up to Leu 398 in LRR13'; variable lymphocyte receptor (VLR) B.61 of hagfish, residues Asn 133-Thr 201 (LRRCT cap); C-terminal limit of the Toll part is printed as 397 (methods, discussion) and as Leu 398 (results); also called larger Toll …
T2 chain (looked up): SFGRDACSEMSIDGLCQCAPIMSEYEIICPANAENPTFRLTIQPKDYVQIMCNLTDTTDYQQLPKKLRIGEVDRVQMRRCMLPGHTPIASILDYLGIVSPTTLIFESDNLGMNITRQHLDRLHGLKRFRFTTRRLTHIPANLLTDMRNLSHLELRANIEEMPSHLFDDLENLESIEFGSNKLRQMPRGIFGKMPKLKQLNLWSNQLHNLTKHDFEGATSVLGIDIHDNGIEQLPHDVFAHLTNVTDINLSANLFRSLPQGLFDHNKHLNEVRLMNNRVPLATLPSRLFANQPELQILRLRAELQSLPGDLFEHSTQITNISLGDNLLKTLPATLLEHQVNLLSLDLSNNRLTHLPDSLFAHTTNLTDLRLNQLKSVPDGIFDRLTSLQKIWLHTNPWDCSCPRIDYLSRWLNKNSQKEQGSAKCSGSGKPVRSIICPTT

With Toll (from UniProt P08953) as the molecule, how does the Kd [1] read?
The Kd was 2 µM.

For “TollN6-VLR (hybrid of Toll residues 28-228 and variable lymphocyte receptor B.61 residues 133-201) (from UniProt P08953 28-228; Q4G1L2 133-201) (domain or fragment)”, which stoichiometry N [2] is on record?
Its stoichiometry N is 4.

B1: Spätzle C-106 (C-terminal active fragment of 106 amino acids of processed Spätzle) (ligand, Drosophila melanogaster, UniProt P48607 221-326, looked up)
chain: VGGSDERFLCRSIRKLVYPKKGLRADDTWQLIVNNDEYKQAIQIEECEGADQPCDFAANFPQSYNPICKQHYTQQTLASIKSDGELDVVQNSFKIPSCCKCALKTG
notes: Spätzle (Spz), Drosophila melanogaster; also called cleaved Spz; source: baculovirus expression system, His-tagged Spätzle, purified
Which NF-κB luciferase reporter in HEK293ET cells transfected with the Toll-TLR4 chimera, 24 hr after Spz stimulation at 10 nM; decrease of the signal against the wild-type chimera [3] does the source give for B1 here?
The NF-κB luciferase reporter in HEK293ET cells transfected with the Toll-TLR4 chimera, 24 hr after Spz stimulation at 10 nM; decrease of the signal against the wild-type chimera was 10 % decrease.

What about the “stoichiometry N” value [4] of the same molecule?
Its value is 1 ratio (2:2 as printed).

What about the “stoichiometry N” value [5] of the same molecule?
Its value is 1 ratio (1:1 as printed).
